Source: US20250025549A1 (NOVAVAX, published 2025)

Biological target: T1, human angiotensin-converting enzyme 2 precursor (hACE2), His-tagged (human, UniProt Q9BYF1 18-740)
T1 construct: also called His-tagged human ACE2; histidine-tagged hACE2
Test: bio-layer interferometry

T1 sequence (Q9BYF1 18-740 limits assumed): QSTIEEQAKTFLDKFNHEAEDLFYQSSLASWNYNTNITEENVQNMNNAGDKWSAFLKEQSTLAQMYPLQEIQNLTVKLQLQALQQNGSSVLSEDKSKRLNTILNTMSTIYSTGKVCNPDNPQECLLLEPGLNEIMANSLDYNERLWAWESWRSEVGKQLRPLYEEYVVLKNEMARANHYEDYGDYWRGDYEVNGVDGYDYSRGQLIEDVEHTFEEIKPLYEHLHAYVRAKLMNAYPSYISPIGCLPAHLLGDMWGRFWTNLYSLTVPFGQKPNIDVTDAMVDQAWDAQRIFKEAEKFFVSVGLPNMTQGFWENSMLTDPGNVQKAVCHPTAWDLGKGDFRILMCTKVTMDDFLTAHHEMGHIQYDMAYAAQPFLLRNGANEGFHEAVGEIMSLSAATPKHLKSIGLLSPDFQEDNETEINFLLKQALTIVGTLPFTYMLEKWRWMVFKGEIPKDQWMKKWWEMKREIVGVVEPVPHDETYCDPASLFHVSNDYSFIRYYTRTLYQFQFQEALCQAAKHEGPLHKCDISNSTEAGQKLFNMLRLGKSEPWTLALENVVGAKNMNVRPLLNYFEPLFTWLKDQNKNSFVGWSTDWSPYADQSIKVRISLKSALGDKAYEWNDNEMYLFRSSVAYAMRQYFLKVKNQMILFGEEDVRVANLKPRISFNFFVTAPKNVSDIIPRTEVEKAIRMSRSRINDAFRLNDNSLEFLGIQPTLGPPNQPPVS

B1: MERS S protein (other)
chain: YVDVGPDSVKSACIEVDIQQTFFDKTWPRPIDVSKADGIIYPQGRTYSNITITYQGLFPYQGDHGDMYVYSAGHATGTTPQKLFVANYSQDVKQFANGFVVRIGAAANSTGTVIISPSTSATIRKIYPAFMLGSSVGNFSDGKMGRFFNHTLVLLPDGCGTLLRAFYCILEPRSGNHCPAGNSYTSFATYHTPATDCSDGNYNRNASLNSFKEYFNLRNCTFMYTYNITEDEILEWFGITQTAQGVHLFSSRYVDLYGGNMFQFATLPVYDTIKYYSIIPHSIRSIQSDRKAWAAFYVYKLQPLTFLLDFSVDGYIRRAIDCGFNDLSQLHCSYESFDVESGVYSVSSFEAKPSGSVVEQAEGVECDFSPLLSGTPPQVYNFKRLVFTNCNYNLTKLLSLFSVNDFTCSQISPAAIASNCYSSLILDYFSYPLSMKSDLSVSSAGPISQFNYKQSFSNPTCLILATVPHNLTTITKPLKYSYINKCSRFLSDDRTEVPQLVNANQYSPCVSIVPSTVWEDGDYYRKQLSPLEGGGWLVASGSTVAMTEQLQMGFGITVQYGTDTNSVCPKLEFANDTKIASQLGNCVEYSLYGVSGRGVFQNCTAVGVRQQRFVYDAYQNLVGYYSDDGNYYCLRACVSVPVSVIYDKETKTHATLFGSVACEHISSTMSQYSRSTRSMLKRRDSTYGPLQTPVGCVLGLVNSSLFVEDCKLPLGQSLCALPDTPSTLTPRSVRSVPGEMRLASIAFNHPIQVDQLNSSYFKLSIPTNFSFGVTQEYIQTTIQKVTVDCKQYVCNGFQKCEQLLREYGQFCSKINQALHGANLRQDDSVRNLFASVKSSQSSPIIPGFGGDFNLTLLEPVSISTGSRSARSAIEDLLFDKVTIADPGYMQGYDDCMQQGPASARDLICAQYVAGYKVLPPLMDVNMEAAYTSSLLGSIAGVGWTAGLSSFAAIPFAQSIFYRLNGVGITQQVLSENQKLIANKFNQALGAMQTGFTTTNEAFHKVQDAVNNNAQALSKLASELSNTFGAISASIGDIIQRLDVLEQDAQIDRLINGRLTTLNAFVAQQLVRSESAALSAQLAKDKVNECVKAQSKRSGFCGQGTHIVSFVVNAPNGLYFMHVGYYPSNHIEVVSAYGLCDAANPTNCIAPVNGYFIKTNNTRIVDEWSYTGSSFYAPEPITSLNTKYVAPQVTYQNISTNLPPPLLGNSTGIDFQDELDEFFKNVSTSIPNFGSLTQINTTLLDLTYEMLSLQQVVKALNESYIDLKELGNYTYYNKWPWYIWLGFIAGLVALALCVFFILCCTGCGTNCMGKLKCNRCCDRYEEYDLEPHKVHVH
notes: also called MERS-CoV spike protein
B1: no binding.
